Columns and labels:
[1] = molecular target: full length MMP-1 (human); assay: enzyme activity of pre-formed complexes against synthetic substrates; 10 nM [35S]TIMP-3 incubated with an equimolar concentration of metalloproteinase for 1 h at 37 °C; complex formation and stability over 24 h checked by activity
[2] = molecular target: ADAMTS-5 (of the inhibition assays) (UniProt Q9UNA0); assay: enzyme inhibition kinetics (fluorogenic peptide substrates); apparent Ki; enzyme pre-incubated with TIMP-3 (0.5-100 nM) 1 h at 37 °C, equilibrium rate of substrate hydrolysis; TNC buffer (50 mM Tris-HCl pH 7.5, 150 mM NaCl, 10 mM CaCl2, 0.05% Brij-35, 0.02% NaN3), 37 °C; tight-binding equation

Chain of full length MMP-1 (human) (P03956 100-469): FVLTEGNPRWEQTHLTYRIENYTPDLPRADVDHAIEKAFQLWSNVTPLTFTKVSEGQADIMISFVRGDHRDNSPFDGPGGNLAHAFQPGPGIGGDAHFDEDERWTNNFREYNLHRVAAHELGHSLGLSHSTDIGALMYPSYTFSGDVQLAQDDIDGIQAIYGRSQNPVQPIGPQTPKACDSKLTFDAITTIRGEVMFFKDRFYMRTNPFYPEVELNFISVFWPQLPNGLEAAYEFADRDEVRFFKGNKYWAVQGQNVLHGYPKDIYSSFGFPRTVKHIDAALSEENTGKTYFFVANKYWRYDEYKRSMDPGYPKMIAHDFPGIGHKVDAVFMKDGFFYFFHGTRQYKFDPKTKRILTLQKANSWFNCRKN

B1: FLAG-tagged TIMP-3 (natural protein)
chain: CTCSPSHPQDAFCNSDIVIRAKVVGKKLVKEGPFGTLVYTIKQMKMYRGFTKMPHVQYIHTEASESLCGLKLEVNKYQYLLTGRVYDGKMYTGLCNFVERWDQLTLSQRKGLNYRYHLGCNCKIKSCYYLPCFVTSKNECLWTDMLSNFGYPGYQSKHYACIRQKGGYCSWYRGWAPPDKSIINATDP
- stoichiometry N [1]: 1
- Ki [2]: 1.91 nM

Source: article PMC7374751
